Measured values from patent US20080009025.
Changes are numbered by the printed parent chain. In names and notes the source's numbering stands.

Tests used:
[1] = target: PDKtide (39 amino acid polypeptide, T308tide fused to PIFtide)
T308tide = target: T1, T308tide
T1 chain: KTFCGTPEYLAPEV

D978A-PIFtide = target: T2, D978A-PIFtide
T2 chain: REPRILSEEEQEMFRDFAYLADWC

[2] = target: GST-PKBα (full length), P31749
[3] = target: GST-PKBα[F472A] (full length), P31749
[4] = target: GST-PKBα[S473D] (full length), P31749
GST-PKBα[S473D] (full length), P31749, sequence (P31749 whole entry S473D, looked up): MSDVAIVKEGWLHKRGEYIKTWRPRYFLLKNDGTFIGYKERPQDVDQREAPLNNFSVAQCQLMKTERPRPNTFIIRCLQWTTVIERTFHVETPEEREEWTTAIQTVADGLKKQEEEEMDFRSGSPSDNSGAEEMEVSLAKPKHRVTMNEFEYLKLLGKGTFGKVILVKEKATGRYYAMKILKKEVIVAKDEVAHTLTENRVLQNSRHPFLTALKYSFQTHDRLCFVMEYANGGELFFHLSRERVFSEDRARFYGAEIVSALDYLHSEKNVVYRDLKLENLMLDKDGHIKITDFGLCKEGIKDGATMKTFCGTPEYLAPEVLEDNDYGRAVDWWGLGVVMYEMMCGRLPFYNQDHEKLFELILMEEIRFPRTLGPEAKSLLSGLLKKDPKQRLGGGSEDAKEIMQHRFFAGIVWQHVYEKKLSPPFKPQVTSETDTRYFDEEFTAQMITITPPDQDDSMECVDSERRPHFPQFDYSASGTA

[5] = target: GST-SGK1 (lacking the N-terminal 60 amino acids), O00141
GST-SGK1 (lacking the N-terminal 60 amino acids), O00141, sequence (O00141 whole entry, looked up): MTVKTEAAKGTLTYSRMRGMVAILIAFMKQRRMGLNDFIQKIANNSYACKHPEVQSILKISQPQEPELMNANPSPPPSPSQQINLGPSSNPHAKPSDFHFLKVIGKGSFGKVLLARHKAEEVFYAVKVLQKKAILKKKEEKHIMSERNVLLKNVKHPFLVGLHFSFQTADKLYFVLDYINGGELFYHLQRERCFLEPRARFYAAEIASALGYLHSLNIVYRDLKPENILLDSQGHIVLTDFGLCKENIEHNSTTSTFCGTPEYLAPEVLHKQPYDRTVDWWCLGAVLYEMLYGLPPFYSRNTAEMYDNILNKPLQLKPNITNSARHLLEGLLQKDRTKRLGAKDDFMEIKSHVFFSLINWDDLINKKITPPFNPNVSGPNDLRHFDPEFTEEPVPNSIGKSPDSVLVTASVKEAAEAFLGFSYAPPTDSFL

[6] = target: GST-SGK1[T422D] (lacking the N-terminal 60 amino acids), O00141
GST-SGK1[T422D] (lacking the N-terminal 60 amino acids), O00141, sequence (O00141 whole entry, looked up, stated change not applied): as the sequence (O00141 whole entry, looked up) above

[7] = target: GST-ΔPH-PKBα[S473D], P31749
GST-ΔPH-PKBα[S473D], P31749, sequence (P31749 whole entry S473D, looked up): as the sequence (P31749 whole entry S473D, looked up) above

[8] = target: His-412E-p70 S6K-T2, P23443
His-412E-p70 S6K-T2, P23443, sequence (P23443 whole entry, looked up): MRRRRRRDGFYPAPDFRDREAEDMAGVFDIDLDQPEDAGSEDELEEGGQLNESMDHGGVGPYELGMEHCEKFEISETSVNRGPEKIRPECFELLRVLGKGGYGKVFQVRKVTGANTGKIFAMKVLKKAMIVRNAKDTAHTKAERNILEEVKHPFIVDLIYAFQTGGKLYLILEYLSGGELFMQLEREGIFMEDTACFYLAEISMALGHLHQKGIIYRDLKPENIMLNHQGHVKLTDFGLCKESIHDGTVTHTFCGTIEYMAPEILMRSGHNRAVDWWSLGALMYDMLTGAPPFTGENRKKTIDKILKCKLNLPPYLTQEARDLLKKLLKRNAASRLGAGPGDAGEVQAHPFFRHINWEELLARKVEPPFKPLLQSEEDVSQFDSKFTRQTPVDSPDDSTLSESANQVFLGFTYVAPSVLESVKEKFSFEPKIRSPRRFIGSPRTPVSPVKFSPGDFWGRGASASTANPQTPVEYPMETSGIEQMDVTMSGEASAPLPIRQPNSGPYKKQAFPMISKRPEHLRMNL

[9] = target: His-p70 S6K-T2 (p70 S6K with N-terminal His tag lacking the carboxy terminal 104 residues), P23443
His-p70 S6K-T2 (p70 S6K with N-terminal His tag lacking the carboxy terminal 104 residues), P23443, sequence (P23443 whole entry, looked up): as above

[10] = substrate: PIF peptide with Asp978 changed to phosphoserine
[11] = target: T3, PIFtide (24 residue synthetic peptide encompassing the PDK1 binding site on PIF)
T3 chain: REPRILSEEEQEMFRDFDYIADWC

GST-ΔPH-PKBα, P31749, sequence (P31749 whole entry, looked up, stated change not applied): as the sequence (P31749 whole entry S473D, looked up) above, with D473S counted along it
GST-PKBα (full length), P31749, sequence (P31749 whole entry, looked up): as the sequence (P31749 whole entry S473D, looked up) above, with D473S counted along it
GST-PKBα[F472A] (full length), P31749, sequence (P31749 whole entry F472A, looked up): as the sequence (P31749 whole entry S473D, looked up) above, with F472A, D473S counted along it

B1: His-PDK1 (PDK1 residues 52-556 with an N-terminal hexahistidine tag) (protein)
chain: HHHHHHDGTAAEPRPGAGSLQHAQPPPQPRKKRPEDFKFGKILGEGSFSTVVLARELATSREYAIKILEKRHIIKENKVPYVTRERDVMSRLDHPFFVKLYFTFQDDEKLYFGLSYAKNGELLKYIRKIGSFDETCTRFYTAEIVSALEYLHGKGIIHRDLKPENILLNEDMHIQITDFGTAKVLSPESKQARANSFVGTAQYVSPELLTEKSACKSSDLWALGCIIYQLVAGLPPFRAGNEYLIFQKIIKLEYDFPEKFFPKARDLVEKLLVLDATKRLGCEEMEGYGPLKAHPFFESVTWENLHQQTPPKLTAYLPAMSEDDEDCYGNYDNLLSQFGCMQVSSSSSSHSLSASDTGLPQRSGSNIEQYIHDLDSNSFELDLQFSEDEKRLLLEKQAGGNPWHQFVENNLILKMGPVDKRKGLFARRRQLLLTEGPHLYYVDPVNKVLKGEIPWSQELRPEAKNFKTFFVHTPNRTYYLMDPSGNAHKWCRKIQEVWRQRYQSHPDAAVQ
rate of phosphorylation at 100 µM, against T308tide [1]: PDKtide was phosphorylated at a rate over 100-fold greater than that using T308tide | Km of PDK1 for the peptide substrate (T308tide): compared to >10 mM for T308tide

B2: GST-PDK1 wild type (full length PDK1, residues 1-556, N-terminal GST) (protein)
chain: MARTTSQLYDAVPIQSSVVLCSCPSPSMVRTQTESSTPPGIPGGSRQGPAMDGTAAEPRPGAGSLQHAQPPPQPRKKRPEDFKFGKILGEGSFSTVVLARELATSREYAIKILEKRHIIKENKVPYVTRERDVMSRLDHPFFVKLYFTFQDDEKLYFGLSYAKNGELLKYIRKIGSFDETCTRFYTAEIVSALEYLHGKGIIHRDLKPENILLNEDMHIQITDFGTAKVLSPESKQARANSFVGTAQYVSPELLTEKSACKSSDLWALGCIIYQLVAGLPPFRAGNEYLIFQKIIKLEYDFPEKFFPKARDLVEKLLVLDATKRLGCEEMEGYGPLKAHPFFESVTWENLHQQTPPKLTAYLPAMSEDDEDCYGNYDNLLSQFGCMQVSSSSSSHSLSASDTGLPQRSGSNIEQYIHDLDSNSFELDLQFSEDEKRLLLEKQAGGNPWHQFVENNLILKMGPVDKRKGLFARRRQLLLTEGPHLYYVDPVNKVLKGEIPWSQELRPEAKNFKTFFVHTPNRTYYLMDPSGNAHKWCRKIQEVWRQRYQSHPDAAVQ
phosphorylation of GST-p70 S6K-T2 by GST-PDK1 in vitro (32P autoradiography), 4 µM peptide (D978A-PIFtide): poorly inhibited the phosphorylation of GST-p70 S6K-T2 by PDK1 slightly | phosphorylation of GST-p70 S6K-T2 by GST-PDK1 in vitro (32P autoradiography), 1.5 µM (GST-D978A-PIF): poorly inhibited the phosphorylation of GST-p70 S6K-T2 by PDK1 slightly | relative phosphorylation of the substrate by PDK1 in vitro (PKB[S473D] = 100), +PIFtide [2]: 19.3 relative | relative phosphorylation of the substrate by PDK1 in vitro (PKB[S473D] = 100), no PIFtide [2]: 28 relative | rate of phosphorylation by PDK1 in vitro, against the wild type enzyme [3]: PKB[F472A] was phosphorylated at a similar rate to the wild type PKB | relative phosphorylation of the substrate by PDK1 in vitro (PKB[S473D] = 100), +PIFtide [4]: 85.4 relative | relative phosphorylation of the substrate by PDK1 in vitro (this value taken as 100; 2.6 mol/mol PDK1/min), no PIFtide [4]: 100 relative | relative phosphorylation of the substrate by PDK1 in vitro (PKB[S473D] = 100), +PIFtide [5]: 3.8 relative | relative phosphorylation of the substrate by PDK1 in vitro (PKB[S473D] = 100), no PIFtide [5]: 8 relative | relative phosphorylation of the substrate by PDK1 in vitro (PKB[S473D] = 100), +PIFtide [6]: 9.6 relative | relative phosphorylation of the substrate by PDK1 in vitro (PKB[S473D] = 100), no PIFtide [6]: 71 relative | relative phosphorylation of the substrate by PDK1 in vitro (PKB[S473D] = 100), +PIFtide (GST-ΔPH-PKBα, P31749): 0.25 relative | relative phosphorylation of the substrate by PDK1 in vitro (PKB[S473D] = 100), no PIFtide (GST-ΔPH-PKBα, P31749): 0.4 relative | relative phosphorylation of the substrate by PDK1 in vitro (PKB[S473D] = 100), +PIFtide [7]: 0.2 relative | relative phosphorylation of the substrate by PDK1 in vitro (PKB[S473D] = 100), no PIFtide [7]: 0.9 relative | relative phosphorylation of the substrate by PDK1 in vitro (PKB[S473D] = 100), +PIFtide [8]: 7.4 relative | relative phosphorylation of the substrate by PDK1 in vitro (PKB[S473D] = 100), no PIFtide [8]: 54 relative | relative phosphorylation of the substrate by PDK1 in vitro (32P, SDS-PAGE, PhosphoImager; PKB[S473D] with PtdIns(3,4,5)P3 = 100), no PIFtide [9]: 10.4 relative | relative phosphorylation of the substrate by PDK1 in vitro (PKB[S473D] = 100), +PIFtide [9]: 0.58 relative | phosphorylation of GST-p70 S6K-T2 by GST-PDK1 in vitro (32P autoradiography), 4 µM peptide [10]: prevented PDK1 from phosphorylating GST-p70 S6K-T2 | phosphorylation of GST-p70 S6K-T2 (wt and 252A) at Thr412 by wt-GST-PDK1, T412-P immunoblot [11]: band in every lane without PIF peptide, no band in the neighbouring lane with PIF peptide (4 µM), for PDK1 from 293 cells and from E. coli | phosphorylation of GST-p70 S6K-T2 at Thr412 by GST-PDK1 (T412-P immunoblot), 4 µM peptide [11]: The 24 residue PIF peptide prevented PDK1 from phosphorylating the p70 S6K at Thr412

B3: GST-PDK1[L155E] (protein)
chain: B2 chain with L155E
relative phosphorylation of the substrate by PDK1-L155E in vitro (PKB[S473D] with wild type PDK1 = 100), +PIFtide [2]: 35 relative | relative phosphorylation of the substrate by PDK1-L155E in vitro (PKB[S473D] with wild type PDK1 = 100), no PIFtide [2]: 35 relative | relative phosphorylation of the substrate by PDK1-L155E in vitro (PKB[S473D] with wild type PDK1 = 100), +PIFtide [4]: 162 relative | relative phosphorylation of the substrate by PDK1-L155E in vitro (PKB[S473D] with wild type PDK1 = 100), no PIFtide [4]: 178 relative | relative phosphorylation of the substrate by PDK1-L155E in vitro (PKB[S473D] with wild type PDK1 = 100), +PIFtide [5]: 2.4 relative | relative phosphorylation of the substrate by PDK1-L155E in vitro (PKB[S473D] with wild type PDK1 = 100), no PIFtide [5]: 3.3 relative | relative phosphorylation of the substrate by PDK1-L155E in vitro (PKB[S473D] with wild type PDK1 = 100), +PIFtide [6]: 3.4 relative | relative phosphorylation of the substrate by PDK1-L155E in vitro (PKB[S473D] with wild type PDK1 = 100), no PIFtide [6]: 3.5 relative | relative phosphorylation of the substrate by PDK1-L155E in vitro (PKB[S473D] with wild type PDK1 = 100), +PIFtide (GST-ΔPH-PKBα, P31749): 0.25 relative | relative phosphorylation of the substrate by PDK1-L155E in vitro (PKB[S473D] with wild type PDK1 = 100), no PIFtide (GST-ΔPH-PKBα, P31749): 0.23 relative | relative phosphorylation of the substrate by PDK1-L155E in vitro (PKB[S473D] with wild type PDK1 = 100), +PIFtide [7]: 0.15 relative | relative phosphorylation of the substrate by PDK1-L155E in vitro (PKB[S473D] with wild type PDK1 = 100), no PIFtide [7]: 0.18 relative | relative phosphorylation of the substrate by PDK1-L155E in vitro (PKB[S473D] with wild type PDK1 = 100), +PIFtide [8]: 0.108 relative | relative phosphorylation of the substrate by PDK1-L155E in vitro (PKB[S473D] with wild type PDK1 = 100), no PIFtide [8]: 0.5 relative | relative phosphorylation of the substrate by PDK1-L155E in vitro (PKB[S473D] with wild type PDK1 = 100), +PIFtide [9]: 0.27 relative | relative phosphorylation of the substrate by PDK1-L155E in vitro (PKB[S473D] with wild type PDK1 = 100), no PIFtide [9]: 0.6 relative
